Measurements from PMC5778602.
Read-outs that look alike come from different tables or passages of the source.

Experiments:
Test in all cases: ITC
CstF-77ΔN;CstF-64RH [1] = target: T1, CstF-77ΔN;CstF-64RH (Homo sapiens;Homo sapiens, UniProt Q12996;P33240 241-717;1-199, del1-240|)
T1 sequence 1: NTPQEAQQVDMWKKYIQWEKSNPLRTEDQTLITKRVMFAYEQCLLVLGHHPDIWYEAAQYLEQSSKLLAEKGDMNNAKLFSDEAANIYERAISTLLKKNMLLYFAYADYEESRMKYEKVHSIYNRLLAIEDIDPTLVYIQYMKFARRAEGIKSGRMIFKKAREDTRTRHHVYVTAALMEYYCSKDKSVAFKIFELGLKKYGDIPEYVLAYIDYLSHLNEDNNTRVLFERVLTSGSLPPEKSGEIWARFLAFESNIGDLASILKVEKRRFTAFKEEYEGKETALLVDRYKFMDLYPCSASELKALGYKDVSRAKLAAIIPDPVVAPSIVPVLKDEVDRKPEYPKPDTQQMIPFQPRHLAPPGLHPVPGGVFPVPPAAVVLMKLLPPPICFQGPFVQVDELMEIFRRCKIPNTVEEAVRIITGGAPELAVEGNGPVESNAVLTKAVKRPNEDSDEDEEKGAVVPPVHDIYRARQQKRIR
T1 sequence 2: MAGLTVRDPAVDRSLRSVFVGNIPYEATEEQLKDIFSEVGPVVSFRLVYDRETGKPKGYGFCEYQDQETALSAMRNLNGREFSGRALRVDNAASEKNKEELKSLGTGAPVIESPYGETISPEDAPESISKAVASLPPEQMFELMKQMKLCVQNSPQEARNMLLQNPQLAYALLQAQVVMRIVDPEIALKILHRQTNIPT

[2] = target: T2, CstF-50;CstF-77ΔN;CstF-64RH (Homo sapiens;Homo sapiens;Homo sapiens, UniProt Q05048;Q12996;P33240 1-431;241-717;1-199, |del1-240|)
T2 sequence 1: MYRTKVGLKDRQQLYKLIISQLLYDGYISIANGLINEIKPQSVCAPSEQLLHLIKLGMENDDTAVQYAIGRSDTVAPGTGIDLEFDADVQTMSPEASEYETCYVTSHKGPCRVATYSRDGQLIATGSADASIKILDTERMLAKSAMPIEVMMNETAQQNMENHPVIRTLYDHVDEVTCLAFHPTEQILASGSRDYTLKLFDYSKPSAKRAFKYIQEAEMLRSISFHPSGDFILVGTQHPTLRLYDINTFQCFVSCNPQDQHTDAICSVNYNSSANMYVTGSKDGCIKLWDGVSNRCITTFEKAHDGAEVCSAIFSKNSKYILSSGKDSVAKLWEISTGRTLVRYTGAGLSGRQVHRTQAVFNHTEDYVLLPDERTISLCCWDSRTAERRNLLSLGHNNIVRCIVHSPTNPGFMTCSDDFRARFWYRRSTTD
T2 sequence 2: T1 sequence 1
T2 sequence 3: T1 sequence 2

[3] = target: T2, CstF-50;CstF-77ΔN;CstF-64RH; remark: listed apart in the source
CstF-64 RRM = target: T3, CstF-64 RRM (Homo sapiens, UniProt P33240 16-94)
T3 sequence: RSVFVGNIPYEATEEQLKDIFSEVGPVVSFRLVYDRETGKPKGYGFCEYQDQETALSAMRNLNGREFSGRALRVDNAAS

CstF-77ΔN;CstF-64RH [4] = target: T1, CstF-77ΔN;CstF-64RH; remark: listed apart in the source
[5] = target: T2, CstF-50;CstF-77ΔN;CstF-64RH; remark: listed apart in the source
[6] = target: T2, CstF-50;CstF-77ΔN;CstF-64RH; remark: listed apart in the source
CstF-77ΔN;CstF-64RH [7] = target: T1, CstF-77ΔN;CstF-64RH; remark: listed apart in the source

B1: UUUUU-containing RNA (ssRNA)
RNA: GUGUGACCCUUUUU
Binder B1 has a Kd (CstF-77ΔN;CstF-64RH [1]) of roughly 3700 nM.

B2: GU8 (ssRNA)
RNA: GUGUGUGU
Binder B2 has a binding signal [2] of roughly 2.5 fold tighter than GU6.

B3: GU14 (ssRNA)
RNA: GUGUGUGUGUGUGU
Binder B3 has a Kd [3] of roughly 120 nM, a Kd (CstF-64 RRM) of roughly 2500 nM and a Kd (CstF-77ΔN;CstF-64RH [4]) of roughly 160 nM.

B4: AC14 (ssRNA)
RNA: ACACACACACACAC
B4: no binding [5].

B5: GU10 (ssRNA)
RNA: GUGUGUGUGU
B5 was tested, and the Kd [6] was roughly 500 nM and the binding result (CstF-77ΔN;CstF-64RH [7]) was “binds”.
